From patent publication US20240016956A1
Several values for one entry are separate records, joined by “and”; a condition that tells them apart may be missing. Equal values may be shown once.

Target: AAV9 capsid (of the vector AAV9.CAG.GFP / AAV9 test virus) (AAV9)
Assay: cell-based or functional assay

IVIG (intravenous immunoglobulin), a purified mix of IgG obtained from thousands of healthy donors
AAV9 NAb50 Titer in HEK293 cells (fresh IVIG sample) (reciprocal dilution): 160 and 320
